Where no end group is shown, it is not given here. The star is where a group is joined. Carboxymethyl = O=C(O)C*

This is an account of results in patent publication US6770740B1, “Crosslinked DNA condesate compositions and gene delivery methods” (The Regents of the University of Michigan, priority 1999, dated 2004).

Data set [1] deals with HepG2 cells. The data set can be described thus: Nuclear targeted β-galactosidase (X-gal) count of transfected HepG2 cells. As to conditions: HepG2, 48 h, NTβGal plasmid. In kind it is cell-based. Here is the method:
(§1) The number of cells transfected in vitro was examined using a plasmid encoding nuclear targeted β-galactosidase followed by X-gal (5-bromo-4-chloro-3-indolyl-β-galactopyranoside) staining. HepG2 and COS 7 cells were transfected for 5 h as described above with either AlkCWK18 DNA, peptide II DNA condensates, or plasmid DNA and then grown in fresh media for an additional 43 h. After removing media, cells were fixed for 5 min in phosphate-buffered saline (PBS, pH 7.3) containing 1.25 vol/vol % glutaraldehyde and then stained by incubation with 0.05 wt/v % X-gal, 1 mM magnesium chloride, 10 mM potassium ferricyanide, and 10 mM potassium ferrocyanide in PBS. After 4 h at 37° C., the X-gal solution was removed and the nuclear stained blue cells were counted with a light microscope under ten power magnification by averaging the number of transfectants from nine fields. Values were analyzed for significance by one-way analysis of variance.

The test system of data set [2] is COS 7 cells. Nature of the data set: Nuclear targeted β-galactosidase (X-gal) count of transfected COS 7 cells. Type of data set: cell-based. As to conditions: COS 7, 48 h, NTβGal plasmid. Here is the method:
as §1

Data set [3] is described as follows: QELS particle size and zeta potential of PEG-peptide DNA condensates and co-condensates, Example 1. Type of data set: physicochemical. As to conditions: charge ratio of 1.8:1 or higher; 50 μg/ml DNA in Hepes. Here is the method:
The particle size of peptide DNA condensates were analyzed at a DNA concentration of 50 μg/ml in Hepes by quasielastic light scattering (QELS). The particle surface change was determined by zeta potential analysis using a Brookhaven ZetaPlus™ (Brookhaven Instruments).
DNA co-condensates were prepared by add-mixing AlkCWK18 and PEG-VS-CWK18 in ratios ranging from 0 to 100 mol %, and condensing DNA at a charge ratio of 2.3:1 as described above. To establish the mol ratio of peptides bound to DNA, condensates were dialyzed in a fixed volume (0.5 ml) dialyzer for 75 h against water using a 100,000 MWCO membrane. Peptide DNA condensates in the retentate (0.5 ml) were dissociated by adding 50 μl of 5 M sodium chloride in 0.1% TFA. AlkCWK18 and PEG-VS-CWK18 were quantified by injecting 1 nmol of peptide (100 μl) onto analytical RP-HPLC eluted with 0.1% TFA and a gradient of acetonitrile (5 to 65% over 30 min) while detecting tryptophan by fluorescence (λex 280 nm, λem 350 nm). The peak integration areas were used to quantify AlkCWK18 and PEG-VS-CWK18 with reference to standard curves developed for each peptide.

Data set [4] relates to HepG2 cells. Nature of the data set: Cell binding of 125I-DNA condensates, Example 1. As to conditions: 5 h transfection, 10 μg 125I-DNA condensates. Type of data set: cell-based. On the procedure: Iodinated plasmid DNA was prepared with specific activity of 300 nCi per μg of DNA as described previously (Teribesi et al., 1998). Prior to forming DNA condensates, the specific activity of the ^125I DNA was adjusted to 4.5 nCi per μg of DNA by combining with unlabeled plasmid. DNA condensates were prepared using AlkCWK18, PEG-SS-CWK18 or PEG-VS-CWK18 as described above. Peptide ^125I-DNA condensates (10 μg) were used to transfer HepG2 cells for 5 h according to the procedure described above. The radioactive media was removed, cells were washed with phosphate buffered saline, harvested with lysis buffer, and the cell-associated radioactivity was quantified by gamma counting.

Data set [5] can be described thus: Particle size and zeta potential of peptide DNA condensates after freeze-drying and rehydration, Example 2. Type of data set: physicochemical. On the procedure:
The concentration of AlkCWK18 and PEG-CWK18 were determined by UV absorbance (Trp, ε280 nm=5,600 M^−1 cm^−1). Peptide DNA condensates were prepared in 5 mM Hepes pH 5 at a peptide/DNA stoichiometry of 0.3 nmol of peptide/μg of DNA. The condensates were formed by adding 450 μL of 100 μg/mL NT-βGal drop wise to 450 μL of 30 nmol/mL AlKCWK18 or PEG-CWK18 while vortexing. Each sample was prepared in triplicate, and after a 30 min equilibration, 20-100 μL of 50 wt/vol % solutions of either glucose, mannitol, galactose, dextran or sucrose were added followed by normalization to 1 mL to give a final sugar concentration of 1-5 wt/vol % and DNA concentration of 50 μg/mL.
The mean particle size of 50 μg/mL AlkCWK18 DNA condensates were determined by quasielastic light scattering (QELS) on a Brookhaven ZetaPlus™. Samples (1 mL) were frozen rapidly in dry ice ethanol in a 1.5 mL microcentrifuge tube and then lyophilized on a Labconco™ freeze dryer for 24 h operated at a constant vacuum of 55×10^−6 mBar while maintained at room temperature (22° C.). The maximal vacuum was achieved within 2 min after applying the sample.
At the highest sucrose concentration of 5 wt/vol %, samples remained frozen throughout freeze-drying but dried to form a glassy solid after 24 h. […] Freeze-dried samples prepared in triplicate were reconstituted in 1 mL of deionized water, allowed to equilibrate for 30 min and then analyzed by QELS as described above. Large peptide DNA condensates were measured by light microscopy with magnification of 100X. The particle size of PEG-peptide DNA condensates were also measured by transmission electron microscopy (TEM) according to a published procedure (Wadhwa et al., 1997).
The relationship between pH and rehydrated peptide DNA condensate particle size was examined in 5 mM Hepes at a pH range of 3-7. The particle size of 50 μg/mL DNA condensates in 5 wt/vol % sucrose was determined by QELS before and after freeze-drying as described above.
The rehydrated particle size of AlkCWK18 or PEG-CWK18 DNA condensates were also examined at a concentration of 0.05-5 mg/mL in 5 mM Hepes pH 5 with (AlkCWK18 DNA) or without (PEG-CWK18 DNA) the addition of 5 wt/vol % sucrose. DNA condensates were freeze-dried and reconstituted to the original concentration. QELS particle size analysis before and after freeze-drying required dilution of an aliquot of the sample to concentration of 50 μg/mL. Freeze-dried 5 mg/mL PEG-CWK18 DNA condensates were also reconstituted in 0.9 wt/vol % sodium chloride and analyzed for particle size.

Data set [6] concerns plasmid DNA. Nature of the data set: Fluorescent dye (thiazole orange) displacement assay of peptide binding to DNA, Example 1. As to conditions: corresponding to a charge ratio of 1.8:1. Here is the method:
Peptide DNA condensates were formed by adding 75 μg of DNA (pCMVL in 750 μl of 5 mM Hepes pH 7.4) to varying amounts of peptide (7.5 to 90 nmol in 750 μl of Hepes) while vortexing, followed by equilibration at RT for 1 h. Peptide binding to DNA was monitored by a fluorescent dye displacement assay (Wadhwa et al. 1997). A 1 μg aliquot of the peptide DNA condensate was diluted to 1 ml in Hepes containing 0.1 μM thiazole orange. The fluorescence of the intercalated dye was measured on an LS50B fluorimeter (Perkin Elmer, UK) in a microcuvette by exciting at 500 nm while monitoring emission at 530 nm.

For the substance “Cys-Trp-Lys17-Cys (CWKKKKKKKKKKKKKKKKKC) [Peptide II]”, the “more cells transduced (nuclear stained) vs. AlkCWK18” value in data set [1] is given as “approximately 9 fold”. In data set [2], the “more cells positively stained vs. AlkCWK18” value stood at 4 fold.

Regarding “Alk-S-Cys-Trp-Lys18 (C(Carboxymethyl)WKKKKKKKKKKKKKKKKKK) [AlkCWK18]”, in data set [3], the “mean diameter of DNA condensates” value came to 60 nm. Besides, the “cell associated 125I-DNA, percent of dose” value in data set [4] is given as “Approximately 14%”. The “minimum sucrose concentration to bulk DNA condensates during freeze-drying” value in data set [5] (50 μg/ml DNA condensates) is 1 wt/vol %. The “diameter of fibrous flocculates after freeze-drying and rehydration without lyoprotectant” value in data set [5] (50 μg/ml DNA condensates, light microscopy) is listed as “approximately 100 μm”. Further, the “upper limit of DNA condensate concentration below which rehydrated particle size was maintained” value in data set [5] (5 wt/vol % sucrose, 5 mM Hepes pH 5) amounted to 200 µg/mL. Moreover, the “mean particle diameter during rehydration” value in data set [5] (5 wt/vol % sucrose, DNA concentrations up to 200 μg/mL) was “less than 50 nm”. Also, the zeta potential result in data set [5] (pH 3) is “+30 mV”. Also, the “peptide:DNA stoichiometry at the asymptote of the dye displacement titration curve (relative DNA binding affinity)” value in data set [6] is recorded as 0.3 nmol per μg of DNA.
